According to patent US20140221281A1 (Sanofi, published 2014):
*1 amine or outer side, *2 acyl side, *3 side chain or, on linkers, in order; H or OH if unused. Where no end group is shown, it is not given here. Side-chain parts run from the residue outwards. [ ]: non-standard residue; d: D form. The star is where a group is joined. γGlu = O=C(O)[C@H](CCC(=O)[*:2])N[*:1]; Stearoyl = CCCCCCCCCCCCCCCCCC(=O)*; Palmitoyl = CCCCCCCCCCCCCCCC(=O)*; d(αMeK) = C[C@@](N)(CCCCN)C(=O)O; αMeOrn = C[C@](N)(CCCN)C(=O)O; αMeK = C[C@](N)(CCCCN)C(=O)O; Api = NC1(C(=O)O)CCNCC1; Aib = CC(C)(N)C(=O)O

T1: human GIP receptor (human, UniProt P48546 22-466)
T1 sequence (looked up): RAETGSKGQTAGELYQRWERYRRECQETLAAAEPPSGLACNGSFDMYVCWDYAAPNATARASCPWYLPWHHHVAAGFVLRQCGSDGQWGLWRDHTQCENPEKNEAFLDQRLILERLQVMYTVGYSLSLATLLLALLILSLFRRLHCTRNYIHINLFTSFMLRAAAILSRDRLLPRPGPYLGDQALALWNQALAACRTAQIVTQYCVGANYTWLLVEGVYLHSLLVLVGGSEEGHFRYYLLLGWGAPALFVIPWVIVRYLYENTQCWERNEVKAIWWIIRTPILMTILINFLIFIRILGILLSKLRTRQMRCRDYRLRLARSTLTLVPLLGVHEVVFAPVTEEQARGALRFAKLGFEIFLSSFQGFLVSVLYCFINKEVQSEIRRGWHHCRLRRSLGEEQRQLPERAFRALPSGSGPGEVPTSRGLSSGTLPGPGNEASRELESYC


Key:
Assay in all cases: cell-based or functional assay
[1] = biological target: human glucagon receptor (human, UniProt P47871 26-477)
human glucagon receptor, sequence (P47871 26-477): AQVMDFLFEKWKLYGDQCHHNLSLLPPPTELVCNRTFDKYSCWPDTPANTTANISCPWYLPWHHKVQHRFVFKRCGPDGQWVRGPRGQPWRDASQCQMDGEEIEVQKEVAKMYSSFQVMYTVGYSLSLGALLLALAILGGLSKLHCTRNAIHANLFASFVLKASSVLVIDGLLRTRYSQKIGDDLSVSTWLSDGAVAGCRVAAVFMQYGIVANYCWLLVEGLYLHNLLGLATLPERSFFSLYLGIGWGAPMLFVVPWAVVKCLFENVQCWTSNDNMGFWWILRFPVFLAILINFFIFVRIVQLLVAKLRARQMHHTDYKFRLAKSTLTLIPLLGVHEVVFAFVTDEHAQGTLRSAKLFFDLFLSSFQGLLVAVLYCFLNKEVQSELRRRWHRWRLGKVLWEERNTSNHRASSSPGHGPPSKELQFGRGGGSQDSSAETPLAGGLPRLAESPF

[2] = biological target: T1, human GIP receptor
[3] = biological target: human GLP-1 receptor (human, UniProt P43220 24-463)

Row | Binder | EC50 hGLUC R [pM] (cAMP formation) [1] | EC50 hGIP R [pM] (cAMP formation) [2] | EC50 hGLP-1 R [pM] (cAMP formation) [3]
1 | Y[Aib]EGTFTSDLSIQK([γGlu-Stearoyl])DERAA[αMeK]EFIEWLKNTGPSSGAPPPS-NH2 (N-terminus assumed; SMILES CCCCCCCCCCCCCCCCCC(=O)N[C@@H](CCC(=O)NCCCC[C@H](NC(=O)[C@H](CCC(N)=O)NC(=O)[C@@H](NC(=O)[C@H](CO)NC(=O)[C@H](CC(C)C)NC(=O)[C@H](CC(=O)O)NC(=O)[C@H](CO)NC(=O)[C@@H](NC(=O)[C@H](Cc1ccccc1)NC(=O)[C@@H](NC(=O)CNC(=O)[C@H](CCC(=O)O)NC(=O)C(C)(C)NC(=O)[C@@H](N)Cc1ccc(O)cc1)[C@@H](C)O)[C@@H](C)O)[C@@H](C)CC)C(=O)N[C@@H](CC(=O)O)C(=O)N[C@@H](CCC(=O)O)C(=O)N[C@@H](CCCNC(=N)N)C(=O)N[C@@H](C)C(=O)N[C@@H](C)C(=O)N[C@@](C)(CCCCN)C(=O)N[C@@H](CCC(=O)O)C(=O)N[C@@H](Cc1ccccc1)C(=O)N[C@H](C(=O)N[C@@H](CCC(=O)O)C(=O)N[C@@H](Cc1c[nH]c2ccccc12)C(=O)N[C@@H](CC(C)C)C(=O)N[C@@H](CCCCN)C(=O)N[C@@H](CC(N)=O)C(=O)N[C@H](C(=O)NCC(=O)N1CCC[C@H]1C(=O)N[C@@H](CO)C(=O)N[C@@H](CO)C(=O)NCC(=O)N[C@@H](C)C(=O)N1CCC[C@H]1C(=O)N1CCC[C@H]1C(=O)N1CCC[C@H]1C(=O)N[C@@H](CO)C(N)=O)[C@@H](C)O)[C@@H](C)CC)C(=O)O) [SEQ ID NO: 14] | 4730 | 4.5 | 7.2
2 | Y[Aib]QGTFTSDLSKQK([γGlu-Stearoyl])DEQRA[αMeK]EFIEWLKSGGPSSGAPPPS-NH2 (N-terminus assumed; SMILES CCCCCCCCCCCCCCCCCC(=O)N[C@@H](CCC(=O)NCCCC[C@H](NC(=O)[C@H](CCC(N)=O)NC(=O)[C@H](CCCCN)NC(=O)[C@H](CO)NC(=O)[C@H](CC(C)C)NC(=O)[C@H](CC(=O)O)NC(=O)[C@H](CO)NC(=O)[C@@H](NC(=O)[C@H](Cc1ccccc1)NC(=O)[C@@H](NC(=O)CNC(=O)[C@H](CCC(N)=O)NC(=O)C(C)(C)NC(=O)[C@@H](N)Cc1ccc(O)cc1)[C@@H](C)O)[C@@H](C)O)C(=O)N[C@@H](CC(=O)O)C(=O)N[C@@H](CCC(=O)O)C(=O)N[C@@H](CCC(N)=O)C(=O)N[C@@H](CCCNC(=N)N)C(=O)N[C@@H](C)C(=O)N[C@@](C)(CCCCN)C(=O)N[C@@H](CCC(=O)O)C(=O)N[C@@H](Cc1ccccc1)C(=O)N[C@H](C(=O)N[C@@H](CCC(=O)O)C(=O)N[C@@H](Cc1c[nH]c2ccccc12)C(=O)N[C@@H](CC(C)C)C(=O)N[C@@H](CCCCN)C(=O)N[C@@H](CO)C(=O)NCC(=O)NCC(=O)N1CCC[C@H]1C(=O)N[C@@H](CO)C(=O)N[C@@H](CO)C(=O)NCC(=O)N[C@@H](C)C(=O)N1CCC[C@H]1C(=O)N1CCC[C@H]1C(=O)N1CCC[C@H]1C(=O)N[C@@H](CO)C(N)=O)[C@@H](C)CC)C(=O)O) [SEQ ID NO: 12] | – | 27 | 11.6
3 | Y[Aib]EGTFTSDLSIQK([γGlu-Palmitoyl])EERAA[Api]EFIEWLKNTGPSSGAPPPS-NH2 (N-terminus assumed; SMILES CCCCCCCCCCCCCCCC(=O)N[C@@H](CCC(=O)NCCCC[C@H](NC(=O)[C@H](CCC(N)=O)NC(=O)[C@@H](NC(=O)[C@H](CO)NC(=O)[C@H](CC(C)C)NC(=O)[C@H](CC(=O)O)NC(=O)[C@H](CO)NC(=O)[C@@H](NC(=O)[C@H](Cc1ccccc1)NC(=O)[C@@H](NC(=O)CNC(=O)[C@H](CCC(=O)O)NC(=O)C(C)(C)NC(=O)[C@@H](N)Cc1ccc(O)cc1)[C@@H](C)O)[C@@H](C)O)[C@@H](C)CC)C(=O)N[C@@H](CCC(=O)O)C(=O)N[C@@H](CCC(=O)O)C(=O)N[C@@H](CCCNC(=N)N)C(=O)N[C@@H](C)C(=O)N[C@@H](C)C(=O)NC1(C(=O)N[C@@H](CCC(=O)O)C(=O)N[C@@H](Cc2ccccc2)C(=O)N[C@H](C(=O)N[C@@H](CCC(=O)O)C(=O)N[C@@H](Cc2c[nH]c3ccccc23)C(=O)N[C@@H](CC(C)C)C(=O)N[C@@H](CCCCN)C(=O)N[C@@H](CC(N)=O)C(=O)N[C@H](C(=O)NCC(=O)N2CCC[C@H]2C(=O)N[C@@H](CO)C(=O)N[C@@H](CO)C(=O)NCC(=O)N[C@@H](C)C(=O)N2CCC[C@H]2C(=O)N2CCC[C@H]2C(=O)N2CCC[C@H]2C(=O)N[C@@H](CO)C(N)=O)[C@@H](C)O)[C@@H](C)CC)CCNCC1)C(=O)O) [SEQ ID NO: 8] | 34700 | 16.3 | 4.7
4 | Y[Aib]EGTFTSDLSIQK([γGlu-Palmitoyl])EERAA[d(αMeK)]EFIEWLKNTGPSSGAPPPS-NH2 (N-terminus assumed; SMILES CCCCCCCCCCCCCCCC(=O)N[C@@H](CCC(=O)NCCCC[C@H](NC(=O)[C@H](CCC(N)=O)NC(=O)[C@@H](NC(=O)[C@H](CO)NC(=O)[C@H](CC(C)C)NC(=O)[C@H](CC(=O)O)NC(=O)[C@H](CO)NC(=O)[C@@H](NC(=O)[C@H](Cc1ccccc1)NC(=O)[C@@H](NC(=O)CNC(=O)[C@H](CCC(=O)O)NC(=O)C(C)(C)NC(=O)[C@@H](N)Cc1ccc(O)cc1)[C@@H](C)O)[C@@H](C)O)[C@@H](C)CC)C(=O)N[C@@H](CCC(=O)O)C(=O)N[C@@H](CCC(=O)O)C(=O)N[C@@H](CCCNC(=N)N)C(=O)N[C@@H](C)C(=O)N[C@@H](C)C(=O)N[C@](C)(CCCCN)C(=O)N[C@@H](CCC(=O)O)C(=O)N[C@@H](Cc1ccccc1)C(=O)N[C@H](C(=O)N[C@@H](CCC(=O)O)C(=O)N[C@@H](Cc1c[nH]c2ccccc12)C(=O)N[C@@H](CC(C)C)C(=O)N[C@@H](CCCCN)C(=O)N[C@@H](CC(N)=O)C(=O)N[C@H](C(=O)NCC(=O)N1CCC[C@H]1C(=O)N[C@@H](CO)C(=O)N[C@@H](CO)C(=O)NCC(=O)N[C@@H](C)C(=O)N1CCC[C@H]1C(=O)N1CCC[C@H]1C(=O)N1CCC[C@H]1C(=O)N[C@@H](CO)C(N)=O)[C@@H](C)O)[C@@H](C)CC)C(=O)O) [SEQ ID NO: 9] | > 1e+06 | 93.2 | 13.5
5 | Y[Aib]EGTFTSDLSIQK([γGlu-Palmitoyl])EERAA[αMeOrn]EFIEWLKNTGPSSGAPPPS-NH2 (N-terminus assumed; SMILES CCCCCCCCCCCCCCCC(=O)N[C@@H](CCC(=O)NCCCC[C@H](NC(=O)[C@H](CCC(N)=O)NC(=O)[C@@H](NC(=O)[C@H](CO)NC(=O)[C@H](CC(C)C)NC(=O)[C@H](CC(=O)O)NC(=O)[C@H](CO)NC(=O)[C@@H](NC(=O)[C@H](Cc1ccccc1)NC(=O)[C@@H](NC(=O)CNC(=O)[C@H](CCC(=O)O)NC(=O)C(C)(C)NC(=O)[C@@H](N)Cc1ccc(O)cc1)[C@@H](C)O)[C@@H](C)O)[C@@H](C)CC)C(=O)N[C@@H](CCC(=O)O)C(=O)N[C@@H](CCC(=O)O)C(=O)N[C@@H](CCCNC(=N)N)C(=O)N[C@@H](C)C(=O)N[C@@H](C)C(=O)N[C@@](C)(CCCN)C(=O)N[C@@H](CCC(=O)O)C(=O)N[C@@H](Cc1ccccc1)C(=O)N[C@H](C(=O)N[C@@H](CCC(=O)O)C(=O)N[C@@H](Cc1c[nH]c2ccccc12)C(=O)N[C@@H](CC(C)C)C(=O)N[C@@H](CCCCN)C(=O)N[C@@H](CC(N)=O)C(=O)N[C@H](C(=O)NCC(=O)N1CCC[C@H]1C(=O)N[C@@H](CO)C(=O)N[C@@H](CO)C(=O)NCC(=O)N[C@@H](C)C(=O)N1CCC[C@H]1C(=O)N1CCC[C@H]1C(=O)N1CCC[C@H]1C(=O)N[C@@H](CO)C(N)=O)[C@@H](C)O)[C@@H](C)CC)C(=O)O) [SEQ ID NO: 10] | 10400 | 7.1 | 4.9
6 | Y[Aib]QGTFTSDLSIQK([γGlu-Stearoyl])DEQRA[d(αMeK)]EFIEWLKSGGPSSGAPPPS-NH2 (N-terminus assumed; SMILES CCCCCCCCCCCCCCCCCC(=O)N[C@@H](CCC(=O)NCCCC[C@H](NC(=O)[C@H](CCC(N)=O)NC(=O)[C@@H](NC(=O)[C@H](CO)NC(=O)[C@H](CC(C)C)NC(=O)[C@H](CC(=O)O)NC(=O)[C@H](CO)NC(=O)[C@@H](NC(=O)[C@H](Cc1ccccc1)NC(=O)[C@@H](NC(=O)CNC(=O)[C@H](CCC(N)=O)NC(=O)C(C)(C)NC(=O)[C@@H](N)Cc1ccc(O)cc1)[C@@H](C)O)[C@@H](C)O)[C@@H](C)CC)C(=O)N[C@@H](CC(=O)O)C(=O)N[C@@H](CCC(=O)O)C(=O)N[C@@H](CCC(N)=O)C(=O)N[C@@H](CCCNC(=N)N)C(=O)N[C@@H](C)C(=O)N[C@](C)(CCCCN)C(=O)N[C@@H](CCC(=O)O)C(=O)N[C@@H](Cc1ccccc1)C(=O)N[C@H](C(=O)N[C@@H](CCC(=O)O)C(=O)N[C@@H](Cc1c[nH]c2ccccc12)C(=O)N[C@@H](CC(C)C)C(=O)N[C@@H](CCCCN)C(=O)N[C@@H](CO)C(=O)NCC(=O)NCC(=O)N1CCC[C@H]1C(=O)N[C@@H](CO)C(=O)N[C@@H](CO)C(=O)NCC(=O)N[C@@H](C)C(=O)N1CCC[C@H]1C(=O)N1CCC[C@H]1C(=O)N1CCC[C@H]1C(=O)N[C@@H](CO)C(N)=O)[C@@H](C)CC)C(=O)O) [SEQ ID NO: 13] | 202 | 33.1 | 13.6
